3 molecules from US20230053449A1, “DC-SIGN ANTIBODY DRUG CONJUGATES” (NOVARTIS AG, priority 2018, published 2023) can be followed below.

The target of data set [1] is T1, human DC-SIGN, full length, stably expressed on CHO or K562 cells (human, UniProt Q9NNX6 1-404).
T1 construct: Also the native/transgenic human DC-SIGN on moDCs, macrophages and Tg+ mouse dendritic cells in the functional entries; also called human DC-SIGN CHO; human DC-SIGN K562
T1 sequence: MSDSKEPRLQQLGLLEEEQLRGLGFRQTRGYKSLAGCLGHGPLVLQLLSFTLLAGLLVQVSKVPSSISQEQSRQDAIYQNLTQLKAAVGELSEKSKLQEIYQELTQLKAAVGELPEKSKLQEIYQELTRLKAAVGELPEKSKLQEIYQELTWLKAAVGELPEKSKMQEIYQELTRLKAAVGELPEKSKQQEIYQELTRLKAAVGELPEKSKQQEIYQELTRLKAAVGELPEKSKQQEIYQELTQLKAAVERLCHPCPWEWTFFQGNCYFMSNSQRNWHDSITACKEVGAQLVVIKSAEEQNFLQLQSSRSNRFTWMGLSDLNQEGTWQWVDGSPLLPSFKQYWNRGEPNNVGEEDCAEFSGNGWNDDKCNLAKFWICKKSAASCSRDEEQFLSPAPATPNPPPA
In words: flow cytometry, CHO cells expressing human DC-SIGN. The method, then: (§1) The affinity of various antibodies and ADCs to DC-SIGN and its species orthologues was determined using FACS. Purified IgGs were titrated to determine EC50 values for binding to cell surface expressed DC-SIGN.
(§2) For this purpose, human DC-SIGN expressing or cynomolgus monkey DC-SIGN expressing stable CHO cell lines or K562 expressing DC-SIGN or K562 expressing L-SIGN cell lines were checked for density and viability using VICELL (Beckman Coulter), and washed once with 4° C. PBS. Cells were stained with DAPI (0.5 ug/mL) diluted in PBS for 30 min on ice. Cells were diluted into 4° C. FACS buffer (PBS, 10 mM EDTA, 2% FBS). 125 μl of cells were seeded (10,000 cells/well) into 96-well v-bottom plates (Nunc cat #442587) and centrifuged for 4 min at 1500 rpm at 4° C. Supernatant was removed. […] Following incubation, cells were spun down (1500 rpm, 4 min, 4° C.) and washed two times with FACS buffer. A fluorophore-conjugated anti-hFc gamma-AF-647 (Southern Biotechnology) detection antibody was added at 1:400 dilution and samples were incubated for 1 h on ice in the dark.

Data set [2] deals with T1, human DC-SIGN, full length, stably …. Put plainly: flow cytometry, K562 cells expressing human DC-SIGN. The protocol:
as §1, §2
A general note: In flow cytometry, cells or beads pass a laser one at a time.

The target of data set [3] is T2, cynomolgus monkey DC-SIGN, full length, stably expressed on CHO cells (cynomolgus monkey, UniProt Q95J96 1-403 (rhesus entry)).
T2 construct: also called cyno DC-SIGN CHO
T2 sequence: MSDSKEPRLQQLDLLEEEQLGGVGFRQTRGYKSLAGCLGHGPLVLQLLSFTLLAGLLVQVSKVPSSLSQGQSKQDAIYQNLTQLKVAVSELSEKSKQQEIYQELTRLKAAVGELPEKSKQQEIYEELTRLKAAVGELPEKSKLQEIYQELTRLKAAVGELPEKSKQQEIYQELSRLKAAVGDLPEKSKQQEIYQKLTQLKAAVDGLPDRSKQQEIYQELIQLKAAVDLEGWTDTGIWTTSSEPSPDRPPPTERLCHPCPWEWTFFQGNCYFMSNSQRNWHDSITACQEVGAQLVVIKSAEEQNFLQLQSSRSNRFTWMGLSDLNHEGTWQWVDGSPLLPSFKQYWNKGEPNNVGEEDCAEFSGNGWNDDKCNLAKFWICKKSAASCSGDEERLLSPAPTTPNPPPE
Put plainly: flow cytometry, CHO cells expressing cyno DC-SIGN. The protocol: as §1, §2

Data set [4] is described as follows: Aggregation by analytical size-exclusion chromatography (AnSEC). The data set is classed as physicochemical. The following applies: conjugate with linker-payload C-5. The protocol:
Conjugates were profiled using analytical size-exclusion chromatography (AnSEC) on Zenix C-300 3 um 7.8×150 mm column (Sepax Technologies). Alternatively, samples were tested on a KW-803 column (TIC Cat #6960940) Aggregation was analyzed based on analytical size exclusion chromatography and reported as the % monomer based on AUC of the assigned monomer peak.
The sample shown below in Table 20 achieved >90% conjugation efficiency and >95% purity as assessed by AnSEC. This illustrates that conjugates of the invention can be made efficiently and have favorable characteristics.
On the technique in general: In gel filtration, larger molecules generally elute earlier.

A further data set concerns the target T3, L-SIGN (Homo sapiens, UniProt Q9H2X3).
T3 construct: expressed in transfected cells; host or cells: K562 (retroviral transduction)
T3 sequence (Q9H2X3 1-399): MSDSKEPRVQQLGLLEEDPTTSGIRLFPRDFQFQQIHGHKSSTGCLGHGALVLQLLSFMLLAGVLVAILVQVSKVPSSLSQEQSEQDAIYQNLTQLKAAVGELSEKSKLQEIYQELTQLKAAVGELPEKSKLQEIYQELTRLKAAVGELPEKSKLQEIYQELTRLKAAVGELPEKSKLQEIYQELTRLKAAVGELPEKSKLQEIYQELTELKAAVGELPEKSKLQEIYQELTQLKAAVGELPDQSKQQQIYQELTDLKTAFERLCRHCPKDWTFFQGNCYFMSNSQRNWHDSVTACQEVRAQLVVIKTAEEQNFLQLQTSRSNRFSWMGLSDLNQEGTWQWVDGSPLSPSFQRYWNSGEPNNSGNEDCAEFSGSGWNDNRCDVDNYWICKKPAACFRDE
Put plainly: FACS binding to L-SIGN expressing K562 cells. The method, then:
as §1
For this purpose, human DC-SIGN expressing or cynomolgus monkey DC-SIGN expressing stable CHO cell lines or K562 expressing DC-SIGN or K562 expressing L-SIGN cell lines were checked for density and viability using VICELL (Beckman Coulter), and washed once with 4° C. PBS. Cells were stained with DAPI (0.5 ug/mL) diluted in PBS for 30 min on ice. Cells were diluted into 4° C. FACS buffer (PBS, 10 mM EDTA, 2% FBS). 125 μl of cells were seeded (10,000 cells/well) into 96-well v-bottom plates (Nunc cat #442587) and centrifuged for 4 min at 1500 rpm at 4° C. Supernatant was removed. […] After the final wash, cells were resuspended in Fixative Buffer (Biolegend, 420801) and 90 μl of FACS buffer followed by readout on the flow cytometry machine (BD LSRFortessa Cell Analyzer; Cat #647177). Geometric Mean fluorescence intensity (MFI) of live, single cells was calculated in Flowjo 10.4.2 and exported into Graphpad Prism7 for EC50 determination.
Selectivity was assessed by measuring apparent binding affinities to isogenic cell pairs engineered to overexpress DC-SIGN as well as cell lines expressing DC-SIGN paralog L-SIGN.

B1: 1G12 Parental (antibody, V domains shown)
VH: QVQLQQSGPGLVQPSQSLSITCTVSGFSLTNYGVHWVRQSPGKGLEWLGVIWRGESTDYNAAFMSRLSVTKDDSKSQVFFKMNSLQADDTAIYYCARNGGSSGWYFDVWGTGTTVTVSS
VL: DIQMTQTHKFMSTSVGDRVSITCKASQDVTSAVAWYQQTPGQSPNLLIYWTSTRHTGVPDRFTGSGSGTDYTLTISSVQAEDLALYYCQQHYTTPLTFGAGTKLELK
As a reminder, the EC50 is the concentration giving half of the maximal effect. Turning to B1, the 50% effective concentration (EC50) was 0.06 µg/mL in data set [1], 0.02 µg/mL in data set [2] and 0.07 µg/mL in data set [3].

B2: 2B2 Chimeric (antibody)
heavy: EVQLQQSGAELVRPGSSVKMSCKTSGYTFTNYGINWVKQRPGQGLEWIGYIYIGNDYTEYNERFKGKATLTSDTSSSTAHIQLNSLTSEDSAIYFCARLYYGSSLYSYAMDYWGQGTSVTVSSASTKGPSVFPLAPSSKSTSGGTAALGCLVKDYFPCPVTVSWNSGALTSGVHTFPAVLQSSGLYSLSSVVTVPSSSLGTQTYICNVNHKPSNTKVDKRVEPKSCDKTHTCPPCPAPELLGGPSVFLFPPKPKDTLMISRTPEVTCVVVAVSHEDPEVKFNWYVDGVEVHNAKTKPREEQYNSTYRVVSVLTVLHQDWLNGKEYKCKVSNKALAAPIEKTISKAKGQPREPQVYTLPPSREEMTKNQVSLTCLVKGFYPCDIAVEWESNGQPENNYKTTPPVLDSDGSFFLYSKLTVDKSRWQQGNVFSCSVMHEALHNHYTQKSLSLSPGK
light: DIVMTQAAPSVSVTPGESVSISCRSSKSLLHSSGNTYLYWFLQRPGQSPQLLISRMSNLASGVPDRFSGSGSGTAFTLRISRVEAEDVGVYYCMQHLEYPYTFGGGTKLELKRTVAAPSVFIFPPSDEQLKSGTASVVCLLNNFYPREAKVQWKVDNALQSGNSQESVTEQDSKDSTYSLSSTLTLSKADYEKHKVYACEVTHQGLSSPVTKSFNRGEC
For B2, the “% Monomer” value came out at 99% in data set [4] (after preparative SEC) and 95.4% in data set [4] (before preparative SEC).

B3: 2B2 Hz: Humanization of Antibodies 2B2 and 1G12: variable region constructs were designed for humanization and optimization of sequences (antibody)
heavy: QVQLVQSGAEVKKPGASVKVSCKASGYTFTNYGINWVRQAPGQRLEWMGYIYIGNDYTEYNERFKGRVTITSDTSASTAYMELSSLRSEDTAVYYCARLYYGSSLYSYAMDYWGQGTTVTVSSASTKGPSVFPLAPSSKSTSGGTAALGCLVKDYFPCPVTVSWNSGALTSGVHTFPAVLQSSGLYSLSSVVTVPSSSLGTQTYICNVNHKPSNTKVDKRVEPKSCDKTHTCPPCPAPELLGGPSVFLFPPKPKDTLMISRTPEVTCVVVAVSHEDPEVKFNWYVDGVEVHNAKTKPREEQYNSTYRVVSVLTVLHQDWLNGKEYKCKVSNKALAAPIEKTISKAKGQPREPQVYTLPPSREEMTKNQVSLTCLVKGFYPCDIAVEWESNGQPENNYKTTPPVLDSDGSFFLYSKLTVDKSRWQQGNVFSCSVMHEALHNHYTQKSLSLSPGK
light: DIVMTQSPLSLPVTPGEPASISCRSSKSLLHSSGNTYLYWFLQKPGQSPQLLISRMSNLASGVPDRFSGSGSGTDFTLKISRVEAEDVGVYYCMQHLEYPYTFGGGTKVEIKRTVAAPSVFIFPPSDEQLKSGTASVVCLLNNFYPREAKVQWKVDNALQSGNSQESVTEQDSKDSTYSLSSTLTLSKADYEKHKVYACEVTHQGLSSPVTKSFNRGEC
As for B3, the “human L-SIGN K562 EC50” value with L-SIGN was more than 10 µg/mL.
